We go through two molecules from patent publication US20140120109A1 (Regeneron, published 2014).

Experiment [1] has as its target T1, cynomolgus monkey TL1A, soluble, E. coli-expressed, residues 72-251 of SEQ ID NO:248 (cynomolgus monkey (Macaca fascicularis), UniProt O95150 72-251 (human entry)).
T1 construct: with or without N-terminal Met; also called MfTL1A (E. Coli)
T1 chain: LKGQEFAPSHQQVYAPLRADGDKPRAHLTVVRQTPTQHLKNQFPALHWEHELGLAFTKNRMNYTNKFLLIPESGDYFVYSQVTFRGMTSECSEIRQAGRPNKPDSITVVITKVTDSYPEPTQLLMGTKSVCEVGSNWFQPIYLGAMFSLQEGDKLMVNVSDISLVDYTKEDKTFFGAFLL
Kind of experiment: SPR 25C, mAb captured. In short, it runs like this: (§1)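 Biacore T100 SPR with captured mAb and soluble TL1A/Fhm analyte; ka and kd fitted to a 1:1 model assuming monomeric TL1A. KD = kd/ka; t1/2 (min) = ln2/(60·kd).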

Experiment [2] concerns the target T2, Fhm, hTL1A(Q167R), soluble, E. coli-expressed, residues 72-251 of SEQ ID NO:246 (human, UniProt O95150 72-251).
T2 construct: with or without N-terminal Met
T2 chain: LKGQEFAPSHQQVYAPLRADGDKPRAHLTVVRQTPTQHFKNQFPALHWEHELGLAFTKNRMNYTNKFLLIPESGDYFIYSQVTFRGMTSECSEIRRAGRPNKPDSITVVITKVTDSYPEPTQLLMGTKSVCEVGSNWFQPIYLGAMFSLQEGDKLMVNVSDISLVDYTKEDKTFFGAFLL
Kind of experiment: SPR 25C, mAb captured. The method in brief:
as §1

In experiment [3] the target is T3, mouse TL1A, soluble, E. coli-expressed, residues 76-252 of SEQ ID NO:250 (mouse, UniProt Q5UBV8 76-252).
T3 construct: with or without N-terminal Met; also called mTL1A (E. Coli)
T3 sequence: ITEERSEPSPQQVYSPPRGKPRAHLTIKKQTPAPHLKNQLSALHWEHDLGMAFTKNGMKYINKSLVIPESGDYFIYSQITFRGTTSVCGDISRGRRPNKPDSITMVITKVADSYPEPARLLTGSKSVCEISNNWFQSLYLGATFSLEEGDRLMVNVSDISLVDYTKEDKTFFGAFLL
The experiment in a line: SPR 25C, steady state. The method in brief:
as §1

Experiment [4] deals with T4, rat TL1A, soluble, CHO-expressed, residues 76-252 of SEQ ID NO:258 with N-terminal His6-tag (rat, UniProt Q8K3Y7 76-252).
T4 construct: also called rTL1A; rTL1A (CHO)
T4 sequence: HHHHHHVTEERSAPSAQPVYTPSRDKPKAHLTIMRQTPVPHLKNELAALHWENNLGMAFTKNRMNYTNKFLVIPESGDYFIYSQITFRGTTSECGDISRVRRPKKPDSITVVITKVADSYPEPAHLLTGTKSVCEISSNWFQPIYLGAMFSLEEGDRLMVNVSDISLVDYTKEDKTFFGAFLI
The experiment in a line: SPR 37C, mAb captured. In short, it runs like this: as §1

Experiment [5] deals with T2, Fhm, hTL1A(Q167R), soluble, E. …. The experiment in a line: SPR 37C, mAb captured. The method in brief:
as §1

Experiment [6] concerns the target T5, Fhm, hTL1A(Q167R), soluble, CHO-expressed, residues 72-251 of SEQ ID NO:246 (human, UniProt O95150 72-251).
T5 construct: also called Fhm (CHO); FHM (CHO)
T5 chain: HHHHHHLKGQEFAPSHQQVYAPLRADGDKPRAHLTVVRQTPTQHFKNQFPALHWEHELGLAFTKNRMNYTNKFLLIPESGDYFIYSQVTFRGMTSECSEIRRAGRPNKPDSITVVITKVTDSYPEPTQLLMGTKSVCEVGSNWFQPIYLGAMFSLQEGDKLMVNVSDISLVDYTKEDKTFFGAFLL
Kind of experiment: ELISA, blocks FHM (150 pM) binding hDR3-Fc. The procedure:
(§2) The ability of antibodies to block human TL1A binding to its cognate receptors, the DR3 and DcR3 receptors, was measured using a competition sandwich ELISA. In addition, blocking of a human TL1A variant FHM (human TL1A Q167R) and the cynomolgus monkey (Macaca fascicularis) TL1A (MfTL1A) protein binding to the human DR3 or DcR3 receptors was measured in the same manner. Constant amounts of biotinylated human TL1A or FHM (both expressed with a 6-His tag in CHO cells) or biotinylated MfTL1A (expressed in CHO cells) were separately titrated with varying amounts of antibodies. The antibody-protein complexes were incubated in solution (1 hr, 25° C.) and then transferred to microtiter plates coated with human DR3 (hDR3) or human DcR3 (hDcR3) expressed as human IgG1 Fc fusion proteins. After one hour at 25° C. the wells were washed, and bound human or monkey TL1A was detected with streptavidin conjugated with horseradish peroxidase (HRP). Wells were developed with a TMB solution to produce a colorimetric reaction and quenched with aqueous sulfuric acid before reading absorbance at 450 nm on a Perkin-Elmer Victor X5 plate reader. A sigmoidal dose-response curve was fit to the data using the Prism™ data analysis package. […] Both fully human anti-hTL1A mAbs and comparator antibodies, i.e., control mAb1 (an anti-hTL1A antibody with heavy and light chain variable domains having the amino acid sequences corresponding to SEQ ID NOS:21 and 27, respectively, of US 2009/0280116) and control mAb3 (an anti-hTL1A antibody with heavy and light chain variable domains having the amino acid sequences corresponding to SEQ ID NOS:57 and 48, respectively, of US 2009/0280116), were included in the study. NB: No binding under the conditions tested; NT: Not tested. Concentrations of biotinylated soluble ligands: (1) 150 pM; (2) 500 pM; (3) 10 pM; and (4) 50 pM.

Experiment [7] deals with T5, Fhm, hTL1A(Q167R), soluble, …. Kind of experiment: ELISA, blocks FHM (10 pM) binding hDcR3-Fc. The procedure:
as §2

As a reminder, the Kd is the free concentration of one partner at which half of the binding sites on the other are occupied at equilibrium, for simple one-to-one binding. The term IC50 denotes the concentration that gives 50% inhibition.

B1: H4H1745P (antibody, human IgG4 S228P, V domains shown)
VH: EVQLVESGGGLVQPGGSLRLSCAASGFTFSSYAMTWVRQAPGKGLEWVSGVSGRGGSTYYADSVKGRFTISRDNSKNTLYLQMNSLRAEDTAVYYCAYWDISSFDYWGQGTLVTVSS
VL: DIQLTQSPSFLSASVGDRVTITCWASQGISTYLAWYQQKPGKTPKLLIYAASTLQSGVPSRFSGSGSGTDFTLTISSLQPEDFATYYCQQFNSYPLTFGGGTKVEIK
Consider B1, for which the Kd in experiment [1] was 0.141 nM; in experiment [2], 0.115 nM; in experiment [4] it was 16.5 nM; in experiment [5] it was 0.207 nM. Moreover, the t1/2 is 3.68 h in experiment [1], 3.77 h in experiment [2], 0.183 h in experiment [4] and 1.18 h in experiment [5]. For the same molecule, the binding result in experiment [3] was “no binding (tested: up to 100 nM)”. In addition, the IC50 in experiment [6] is 0.044 nM; in experiment [7] it was 0.085 nM.

B2: H4H1742P (antibody, human IgG4 S228P, V domains shown)
VH: EVQLVESGGGLVQPGGSLRLSCAASGFTFSNYVMNWVRQAPGKGLEWVSVISGSGGSTHYADSVKGRFTISRDNSKDALYLQMNSLRAEDTAVYYCAKGPLEAYYYYNGMDVWGQGTTVTVSS
VL: DIQLTQSPSFLSASVGDRVTITCWASQAISSYLAWYQHKPGRAPKLLIYSTSTLQSGVPSRFSGSGSGTEFTLTISSLQPEDFATYYCQQLNSYPTFGQGTKLEIK
Turning to B2, the Kd was 0.593 nM in experiment [1], 0.437 nM in experiment [2], 0.653 nM in experiment [4] and 0.696 nM in experiment [5]. The t1/2 in experiment [1] was found to be 1.62 h; in experiment [2], 2.15 h; in experiment [4] it was 0.45 h; in experiment [5], 0.75 h. Also, the binding result in experiment [3] was “no binding (tested: up to 100 nM)”. For the same molecule, the IC50 in experiment [6] worked out at 0.214 nM; in experiment [7], 0.231 nM.
